Test results: patent CN115093478A

Target: 天然CHIKV-E2蛋白 (Chikungunya virus (Ross株))

B1: 2A2-E10(HRP) (antibody, V domains shown)
VH: EVQLVESGGGLVQPKGSLKLSCAASGFTHNTYNMNWVRQAPGKGLEWVARIRSGSNMYATYYADSVKDRFTISRDDSQSILYLQMNNLKTEDTVMYYCERPDYSGSSYFDYWGQGTTLTVSS
VL: DIQLTQPPSYLAASPGETITINCRASKSYSKYCLAWYQEKPGKTNKLLIYSGSTLQSGIPSRFSGSGSGTDFTLTISSLEPEDFAMYYCQQGNMYPYTFGGGTKLEIK
- DAS-ELISA检测灵敏度: 1e+06 PFU/mL
